Experimental data published in paper doi:10.1101/477745.

Target: Era fused to SB (small bit of luciferase) (S. aureus) (UniProt Q2FGF6)
Experiment: split reporter

Sequence of Era fused to SB (small bit of luciferase) (S. aureus) (Q2FGF6 whole entry, the tested form may be a part): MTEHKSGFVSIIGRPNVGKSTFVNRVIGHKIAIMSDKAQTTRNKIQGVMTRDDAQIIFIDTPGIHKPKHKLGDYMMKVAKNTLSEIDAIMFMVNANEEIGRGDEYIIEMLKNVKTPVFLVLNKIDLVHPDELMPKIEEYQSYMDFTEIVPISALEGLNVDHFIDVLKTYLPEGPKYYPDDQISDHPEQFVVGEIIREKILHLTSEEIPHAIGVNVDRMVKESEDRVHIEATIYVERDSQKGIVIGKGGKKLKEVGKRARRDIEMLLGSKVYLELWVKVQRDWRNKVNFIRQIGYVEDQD
Sequence of YbeY (split luciferase fusion) (natural protein) (A5IT98 whole entry, the tested form may be a part): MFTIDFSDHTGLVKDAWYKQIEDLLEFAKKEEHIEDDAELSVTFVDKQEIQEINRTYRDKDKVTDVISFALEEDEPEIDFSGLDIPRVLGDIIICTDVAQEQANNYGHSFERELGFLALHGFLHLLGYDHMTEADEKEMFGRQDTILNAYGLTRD

## YbeY (split luciferase fusion) (natural protein)
  luminescence relative to the control (x above the control): 2
